The results in this text go back to patent US20060257938A1, “Method of screening for drugs that block ligand binding to a lipid binding protein” (priority 2005, published 2006).

The labels stand for the following.
B1: 106I, 72A (protein, listed as Rattus norvegicus)
chain: AFDGTWKVDRNENYEKFMEKMGINVVKRKLGAHDNLKLTITQEGNKFTVKESSNFRNIDVVFELGVDFAYSAADGTELTGTWTMEGNKLVGKFKRVDNGKELIAVIEISGNELIQTYTYEGVEAKRIFKKE
modifications: PEPTIDE (1)...(131) wild-type rat intestinal fatty acid binding protein
B2: 106T, 72A (protein, listed as Rattus norvegicus)
chain: B1 chain with I106T
modifications: PEPTIDE (1)...(131) wild-type rat intestinal fatty acid binding protein
B3: 23L, 72A (protein, listed as Rattus norvegicus)
chain: B1 chain with I23L, I106R
modifications: PEPTIDE (1)...(131) wild-type rat intestinal fatty acid binding protein
B4: 38M 72G 117F (protein, listed as Rattus norvegicus)
chain: B1 chain with L38M, A72G, I106R, Y117F
modifications: PEPTIDE (1)...(131) wild-type rat intestinal fatty acid binding protein
B5: 11I, 72A (protein, listed as Rattus norvegicus)
chain: B1 chain with N11I, I106R
modifications: PEPTIDE (1)...(131) wild-type rat intestinal fatty acid binding protein
B6: 106A, 72A (protein, listed as Rattus norvegicus)
chain: B1 chain with I106A
modifications: PEPTIDE (1)...(131) wild-type rat intestinal fatty acid binding protein
B7: 106S, 72A (protein, listed as Rattus norvegicus)
chain: B1 chain with I106S
modifications: PEPTIDE (1)...(131) wild-type rat intestinal fatty acid binding protein
B8: 14L 72G 117V (protein, listed as Rattus norvegicus)
chain: B1 chain with Y14L, A72G, I106R, Y117V
modifications: PEPTIDE (1)...(131) wild-type rat intestinal fatty acid binding protein
B9: 106V, 72A (protein, listed as Rattus norvegicus)
chain: B1 chain with I106V
modifications: PEPTIDE (1)...(131) wild-type rat intestinal fatty acid binding protein
B10: 14L 38M 72A 117F (protein, listed as Rattus norvegicus)
chain: B1 chain with Y14L, L38M, I106R, Y117F
modifications: PEPTIDE (1)...(131) wild-type rat intestinal fatty acid binding protein
B11: 14L 72A (protein, listed as Rattus norvegicus)
chain: B1 chain with Y14L, I106R
modifications: PEPTIDE (1)...(131) wild-type rat intestinal fatty acid binding protein
B12: 14I 72G 117V (protein, listed as Rattus norvegicus)
chain: B1 chain with Y14I, A72G, I106R, Y117V
modifications: PEPTIDE (1)...(131) wild-type rat intestinal fatty acid binding protein
B13: 106D, 72A (protein, listed as Rattus norvegicus)
chain: B1 chain with I106D
modifications: PEPTIDE (1)...(131) wild-type rat intestinal fatty acid binding protein
B14: 14I 38I 72V (protein, listed as Rattus norvegicus)
chain: B1 chain with Y14I, L38I, A72V, I106R
modifications: PEPTIDE (1)...(131) wild-type rat intestinal fatty acid binding protein
B15: 49N, 72A (protein, listed as Rattus norvegicus)
chain: B1 chain with V49N, I106R
modifications: PEPTIDE (1)...(131) wild-type rat intestinal fatty acid binding protein
B16: 106N, 72A (protein, listed as Rattus norvegicus)
chain: B1 chain with I106N
modifications: PEPTIDE (1)...(131) wild-type rat intestinal fatty acid binding protein
B17: 55Y, 72A (protein, listed as Rattus norvegicus)
chain: B1 chain with F55Y, I106R
modifications: PEPTIDE (1)...(131) wild-type rat intestinal fatty acid binding protein
B18: 14I 72A (protein, listed as Rattus norvegicus)
chain: B1 chain with Y14I, I106R
modifications: PEPTIDE (1)...(131) wild-type rat intestinal fatty acid binding protein
B19: 106L, 72A (protein, listed as Rattus norvegicus)
chain: B1 chain with I106L
modifications: PEPTIDE (1)...(131) wild-type rat intestinal fatty acid binding protein
B20: 11Y, 72A (protein, listed as Rattus norvegicus)
chain: B1 chain with N11Y, I106R
modifications: PEPTIDE (1)...(131) wild-type rat intestinal fatty acid binding protein

Residue numbers refer to the chain shown, from its start.

The first assay can be described thus: Probe fluorescence ratio response to arachidonic acid relative to ADIFAB2. The assay is classed as binding. The following applies: arachidonic acid; response relative to ADIFAB2. In outline: (§1)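 Each fatty acid's response was expressed relative to ADIFAB2, the rI-FABP-L72A probe, as ΔR/ΔRreference. ΔR is the change in the background-corrected two-wavelength intensity ratio R=Fλ1/Fλ2 from its analyte-free baseline R0. Emission was read near about 420-480 nm for unbound and about 495-580 nm for FFA-bound probe.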
B1: the “DR/DR AA” value is 0.481.
On to B2, for which the “DR/DR AA” value came out at 0.250.
Same read-out and setting: next, B3: 1.174; B4: 1.280; B5: 0.584.
As for B6, the “DR/DR AA” value is 0.389.
Still for that read-out and setting: next, B7: 0.321; B8: 0.873; B9: 0.398.
On to B10, for which the “DR/DR AA” value is on record as 0.861.
Consider B11, for which the “DR/DR AA” value is 0.838.
For B12, the “DR/DR AA” value came to 0.928.
Same read-out and setting: next, B13: 0.502; B14: 0.715; B15: 1.255.
Same read-out and setting: as for B16, the figure is 0.384.
Still for that read-out and setting: next, B17: 0.471.
With B18, the “DR/DR AA” value was 0.825.
B19: the “DR/DR AA” value was determined as 0.383.
Still for that read-out and setting: as for B20, the figure is 0.516.

A short description of another assay: Probe fluorescence ratio response to linolenic acid relative to ADIFAB2. The assay is classed as binding. The conditions noted are these: response relative to ADIFAB2. An outline of the steps: as §1
Regarding B1, the “DR/DR LNA” value came to 0.624.
With B2, the “DR/DR LNA” value is recorded as 0.367.
As to B3, the “DR/DR LNA” value amounted to 1.025.
On to B4, for which the “DR/DR LNA” value was found to be 0.733.
On the same count and under the same terms, as for B5, the figure is 0.507.
The same measure, in the same setting: next, B6: 0.518.
Still for that read-out and setting: next, B7: 0.403; B8: 0.513; B9: 0.592.
In the case of B10, the “DR/DR LNA” value is reported as 0.921.
Same read-out and setting: as for B11, the figure is 0.867; as for B12, 0.547.
As for B13, the “DR/DR LNA” value amounted to 0.591.
In the case of B14, the “DR/DR LNA” value is recorded as 0.926.
On to B15, for which the “DR/DR LNA” value came to 1.181.
On the same count and under the same terms, as for B16, the figure is 0.445.
For B17, the “DR/DR LNA” value is reported as 0.335.
For the molecule B18, the “DR/DR LNA” value is listed as 0.997.
Regarding B19, the “DR/DR LNA” value stood at 0.364.
The same measure, in the same setting: next, B20: 0.311.

Another assay is described as follows: Probe fluorescence ratio response to linoleic acid relative to ADIFAB2. The assay is classed as binding. The following applies: response relative to ADIFAB2. In outline:
as §1
As for B1, the “DR/DR LA” value came to 0.563.
Same read-out and setting: as for B2, the figure is 0.246; as for B3, 1.041.
Still for that read-out and setting: next, B4: 0.748; B5: 0.546.
Same read-out and setting: next, B6: 0.515.
B7: the “DR/DR LA” value is on record as 0.355.
On the same count and under the same terms, next, B8: 0.548; B9: 0.574.
On the same count and under the same terms, as for B10, the figure is 0.830; as for B11, 0.766.
Turning to B12, the “DR/DR LA” value was 0.622.
For the molecule B13, the “DR/DR LA” value was determined as 0.584.
B14: the “DR/DR LA” value was determined as 0.862.
B15: the “DR/DR LA” value turned out to be 1.099.
On the same count and under the same terms, as for B16, the figure is 0.451; as for B17, 0.324; as for B18, 0.944.
On the same count and under the same terms, next, B19: 0.382; B20: 0.330.

A short description of a further assay: Probe fluorescence ratio response to oleic acid relative to ADIFAB2. The assay is classed as binding. The following applies: response relative to ADIFAB2. In outline: as §1
With B1, the “DR/DR OA” value turned out to be 0.661.
Same read-out and setting: as for B2, the figure is 0.434; as for B3, 1.057.
As to B4, the “DR/DR OA” value turned out to be 0.686.
In the case of B5, the “DR/DR OA” value came to 0.387.
Consider B6, for which the “DR/DR OA” value came out at 0.596.
Regarding B7, the “DR/DR OA” value worked out at 0.478.
The same measure, in the same setting: next, B8: 0.297.
Same read-out and setting: as for B9, the figure is 0.657.
The same measure, in the same setting: next, B10: 0.458.
In the case of B11, the “DR/DR OA” value is on record as 0.446.
The same measure, in the same setting: next, B12: 0.337; B13: 0.423; B14: 0.398.
Turning to B15, the “DR/DR OA” value was determined as 1.108.
With B16, the “DR/DR OA” value is 0.496.
On the same count and under the same terms, next, B17: 0.329; B18: 0.478.
For the molecule B19, the “DR/DR OA” value turned out to be 0.431.
On the same count and under the same terms, as for B20, the figure is 0.156.

A further assay can be described thus: Probe fluorescence ratio response to palmitic acid relative to ADIFAB2. The assay is classed as binding. The following applies: response relative to ADIFAB2. An outline of the steps:
as §1
With B1, the “DR/DR PA” value came out at 0.223.
Still for that read-out and setting: next, B2: 0.118.
Take B3: the “DR/DR PA” value is 0.928.
For B4, the “DR/DR PA” value was determined as 0.438.
Same read-out and setting: next, B5: 1.186; B6: 0.164.
Take B7: the “DR/DR PA” value stood at 0.149.
The same measure, in the same setting: next, B8: 0.055; B9: 0.191.
Still for that read-out and setting: as for B10, the figure is 0.472; as for B11, 0.534; as for B12, 0.085.
Still for that read-out and setting: next, B13: 0.147; B14: 0.844.
B15: the “DR/DR PA” value was determined as 0.740.
Still for that read-out and setting: as for B16, the figure is 0.152; as for B17, 0.249; as for B18, 0.762.
Take B19: the “DR/DR PA” value was 0.183.
In the case of B20, the “DR/DR PA” value stood at 0.296.
